We go through one molecule from publication doi:10.1101/2020.12.10.418392.

The experiment has as its target T1, RLP42-GFP (A. thaliana) (UniProt Q9LJS0).
T1 sequence: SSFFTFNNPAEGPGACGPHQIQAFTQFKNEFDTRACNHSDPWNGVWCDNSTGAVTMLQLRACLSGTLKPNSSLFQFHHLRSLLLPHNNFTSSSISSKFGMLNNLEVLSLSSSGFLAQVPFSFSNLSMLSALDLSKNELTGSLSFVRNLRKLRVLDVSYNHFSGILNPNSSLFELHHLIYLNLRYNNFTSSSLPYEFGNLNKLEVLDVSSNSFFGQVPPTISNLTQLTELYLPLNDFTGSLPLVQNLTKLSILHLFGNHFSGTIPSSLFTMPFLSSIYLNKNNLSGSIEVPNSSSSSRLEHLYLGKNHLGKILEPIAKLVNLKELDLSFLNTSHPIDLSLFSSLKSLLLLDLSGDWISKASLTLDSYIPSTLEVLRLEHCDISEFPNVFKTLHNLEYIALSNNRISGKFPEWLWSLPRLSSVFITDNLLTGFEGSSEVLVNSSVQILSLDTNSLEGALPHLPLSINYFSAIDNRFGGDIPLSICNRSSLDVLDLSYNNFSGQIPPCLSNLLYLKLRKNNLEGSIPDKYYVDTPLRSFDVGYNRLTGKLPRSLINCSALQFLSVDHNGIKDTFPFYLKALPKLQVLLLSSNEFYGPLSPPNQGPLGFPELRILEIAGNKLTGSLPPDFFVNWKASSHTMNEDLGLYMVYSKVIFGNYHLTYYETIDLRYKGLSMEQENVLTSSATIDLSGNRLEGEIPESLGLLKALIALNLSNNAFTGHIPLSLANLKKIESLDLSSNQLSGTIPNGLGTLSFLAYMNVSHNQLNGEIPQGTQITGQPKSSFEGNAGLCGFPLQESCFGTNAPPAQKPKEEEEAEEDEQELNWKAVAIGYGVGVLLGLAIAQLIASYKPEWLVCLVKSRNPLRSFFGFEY

AKNTDGFDL [Oom-pg9]: the EC50 of ethylene production in A. thaliana Col-0 leaves stood at 1.3 µM.
